{"source": "patent US20190367615A1", "about": "(BEIJING HANMI PHARM, published 2019)", "key": {"[1]": {"target": "T1, Recombinant human PD-1 (Sino Biological Inc., Catalog Number 10377-H08H) (human, UniProt Q15116 25-167)", "T1 construct": "Bought protein; also called antigen PD-1", "T1 sequence (Q15116 25-167 limits assumed)": "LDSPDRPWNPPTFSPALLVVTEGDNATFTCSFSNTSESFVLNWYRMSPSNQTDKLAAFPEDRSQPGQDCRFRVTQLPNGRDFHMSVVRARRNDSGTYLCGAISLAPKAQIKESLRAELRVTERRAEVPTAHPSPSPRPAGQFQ", "experiment": "species specificity ELISA, coated recombinant human PD-1 (1 ug/mL), anti-human IgG-HRP, OD450nm", "protocol": "Recombinant human PD-1, monkey PD-1, rat PD-1 and mouse PD-1 (all purchased from Sino Biological Inc.), were coated on a 96-well high-absorbing ELISA plate with a carbonate buffer solution with pH 9.6, the coating concentration was 1 μg/mL, the coating amount was 100 μL per well, and the coating was carried out at 4° C. overnight. The plate was washed five times with PBST and blocked with 300 μL/well of PBST containing 1% BSA, and then incubated at 25° C. for 1 hour. The plate was washed five times with PBST. […] The plate was washed five times with PBST. Then, horseradish peroxidase-labeled anti-human IgG antibody (Chemicon, Catalog Number AP309P) 1:2000 diluted in PBST containing 1% BSA was added, 100 μL per well, incubated at 25° C. for 1 hour. The plate was washed five times with PBST. 100 μL/well of colorimetric substrate TMB was added and incubated at room temperature for 10 minutes. Color development was terminated by adding 100 μL/well of 1 M H₂SO₄: The absorbance at 450 nm was read on a microplate reader."}, "[2]": {"target": "T2, Recombinant human CD80 (Sino Biological Inc.) (human, UniProt P33681 35-242)", "T2 sequence (looked up)": "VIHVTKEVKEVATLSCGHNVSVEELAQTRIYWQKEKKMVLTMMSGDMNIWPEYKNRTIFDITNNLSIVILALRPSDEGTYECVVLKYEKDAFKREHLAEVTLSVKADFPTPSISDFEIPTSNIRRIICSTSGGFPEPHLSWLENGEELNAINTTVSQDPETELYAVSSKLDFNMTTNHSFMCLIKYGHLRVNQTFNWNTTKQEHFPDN", "experiment": "binding specificity ELISA, coated recombinant human CD80, anti-human IgG-HRP", "protocol": "The plate was washed five times with PBST and blocked with 300 μL/well of PBST containing 1% BSA and incubated at 25° C. for 1 hour. The plate was washed five times with PBST. […] The plate was washed five times with PBST. Then, horseradish peroxidase-labeled anti-human IgG antibody (Chemicon, Catalog Number AP309P) 1:2000 diluted in PBST containing 1% BSA was added, 100 μL was added to each well, incubated at 25° C. for 1 hour. The plate was washed five times with PBST. 100 μL/well of colorimetric substrate TMB was added and incubated at room temperature for 10 minutes. Color development was terminated by adding 100 μL/well of 1 M H₂SO₄. The absorbance at 450 nm was read on a microplate reader."}}, "data": [{"binder": "anti-human PD-1 chimeric monoclonal antibody (antibody, human IgG4 S228P, kappa, V domains shown, expressed in 293F cells; also called Anti-human PD-1 Chimeric Antibody; chimeric anti-human PD-1 monoclonal antibody) VH: EVQLQESGGGLVKPGGSLKLSCAASGFTFSSYGMSWVRQTPEKRLEWVASISGGGRYTYYPDSMKGRFTISRDNAKNNLHLQMSSLRSEDTALYYCVYEYFYTMDYWGQGTSVTVSS VL: DIVLTQSPATLSVTPGDSVSLSCRANQSISNNLHWYQQRSHESPRLLIRFASQSISGIPSRFSGSGSGTDFTLSINSVETEDFGMYFCQQSDNWPLTFGAGTKLEIKR", "values": [{"measurement": "EC50", "setting": "[1]", "value": 0.092, "unit": "nM"}, {"measurement": "binding result", "setting": "[2]", "value": "no binding"}]}]}
